{"source": "paper PMC12361444", "biological_target": "HAdV-C5 hexon protein (human adenovirus C5) (UniProt P04133)", "sequence (P04133 whole entry)": "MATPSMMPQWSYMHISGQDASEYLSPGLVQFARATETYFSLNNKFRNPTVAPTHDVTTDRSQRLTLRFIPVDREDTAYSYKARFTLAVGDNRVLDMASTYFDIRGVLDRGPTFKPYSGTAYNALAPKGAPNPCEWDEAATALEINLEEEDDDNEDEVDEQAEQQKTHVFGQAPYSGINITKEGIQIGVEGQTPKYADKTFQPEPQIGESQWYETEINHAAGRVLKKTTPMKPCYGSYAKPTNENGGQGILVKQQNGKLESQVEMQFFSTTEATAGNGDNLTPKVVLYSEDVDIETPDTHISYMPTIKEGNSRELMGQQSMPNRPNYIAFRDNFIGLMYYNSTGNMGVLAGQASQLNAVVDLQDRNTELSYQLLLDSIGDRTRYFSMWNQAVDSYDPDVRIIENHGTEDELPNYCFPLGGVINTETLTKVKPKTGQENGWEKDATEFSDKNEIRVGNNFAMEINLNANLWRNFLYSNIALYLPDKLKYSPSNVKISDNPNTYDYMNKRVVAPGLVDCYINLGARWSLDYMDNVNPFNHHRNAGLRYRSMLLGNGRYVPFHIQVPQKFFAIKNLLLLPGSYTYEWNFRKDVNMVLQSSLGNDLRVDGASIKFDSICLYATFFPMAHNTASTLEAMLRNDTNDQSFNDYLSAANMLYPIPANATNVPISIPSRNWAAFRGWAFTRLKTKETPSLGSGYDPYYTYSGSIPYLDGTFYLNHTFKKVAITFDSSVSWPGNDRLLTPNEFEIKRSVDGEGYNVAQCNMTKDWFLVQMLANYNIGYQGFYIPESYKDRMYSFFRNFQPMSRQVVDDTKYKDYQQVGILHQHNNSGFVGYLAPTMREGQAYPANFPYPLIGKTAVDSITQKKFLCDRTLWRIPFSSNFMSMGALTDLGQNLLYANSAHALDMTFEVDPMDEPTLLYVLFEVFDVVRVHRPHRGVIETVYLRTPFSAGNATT", "data": [{"substance": "Human lactoferricin 1-49 (peptide)", "values": [{"measurement": "qPCR of cell-bound HAdV-C5 genomes on myoblasts (5000 vp/cell, 2 µM Lfcin, on ice 30 min), with versus without Lfcin", "result": 20, "unit": "fold"}]}]}
